Literature values, collected in patent publication US12383526B2, “Optimized sigma-1 agonist method of responder selection and treatment” (ANAVEX LIFE SCIENCES CORP., priority 2018, dated 2025).

Conditions: after 72 weeks; CTAD 2018; cited from earlier work

B1: BAN2401: comparison from other studies: data presented at CTAD 2018 for BAN2401 after 72 weeks (antibody, chains of the INN, looked up, V domains shown)
VH: EVQLVESGGGLVQPGGSLRLSCSASGFTFSSFGMHWVRQAPGKGLEWVAYISSGSSTIYYGDTVKGRFTISRDNAKNSLFLQMSSLRAEDTAVYYCAREGGYYYGRSYYTMDYWGQGTTVTVSS
VL: DVVMTQSPLSLPVTPGAPASISCRSSQSIVHSNGNTYLEWYLQKPGQSPKLLIYKVSNRFSGVPDRFSGSGSGTDFTLRISRVEAEDVGIYYCFQGSHVPPTFGPGTKLEIK
adjusted mean change from baseline in ADAS-Cog: 47%
adjusted mean change in ADCOMS: 30%
